Results on ten molecules are retold here after patent US20220119513A1 (ZOETIS SERVICES, published 2022).

For test [1], the target named is T1, TGFβ1 (R&D Systems).
T1 construct: also called TGFB1
Put plainly: SPR full titration.

For test [2], the target named is T2, TGFβ3 (R&D Systems) (Homo sapiens (Human), UniProt P10600 301-412, Active TGFβ3 is a disulfide-linked homodimer of this chain; one copy is given.).
T2 construct: also called TGFB3
T2 sequence: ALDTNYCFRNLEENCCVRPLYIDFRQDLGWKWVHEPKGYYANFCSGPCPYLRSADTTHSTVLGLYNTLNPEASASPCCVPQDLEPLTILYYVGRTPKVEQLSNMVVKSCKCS
The test is described as follows: SPR full titration.

Test [3] addresses T1, TGFβ1 (R&D Systems). Put plainly: cell-based or functional assay.
The target in test [4] is T1, TGFβ1 (R&D Systems). Put plainly: SPR, TGFβ on chip. The source says:
(§1) To avoid affinity differences associated with differential surface preparation that can occur when immobilizing antibodies to surfaces, TGFβ1, TGFβ2, and TGFβ3 (R&D Systems) were directly conjugated to the individual surface. Immobilization was obtained by amine coupling […] using N-hydroxysuccinimide (NHS)/1-Ethyl-3-(3-dimethylaminopropyl) carbodiimide (EDC) chemistry. Chips were quenched with ethanolamine and the affinity with which all candidate mAbs bound to the immobilized TGFβ was evaluated. All curves were fit to a 1:1 model. Affinities <10⁻¹¹ are below the lower limit of quantitation of detection for the instrument.
(In general: Surface plasmon resonance follows binding to a sensor surface in real time, without labels.)

The target of test [5] is T3, TGFβ2 (R&D Systems).
T3 construct: also called TGFB2
T3 sequence (P61812 303-414, species assumed, looked up): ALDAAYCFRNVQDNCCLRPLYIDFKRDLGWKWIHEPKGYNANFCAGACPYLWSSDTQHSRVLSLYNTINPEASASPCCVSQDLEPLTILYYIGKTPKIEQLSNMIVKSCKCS
Put plainly: SPR, TGFβ on chip.
Source text: as §1

The target of test [6] is T2, TGFβ3 (R&D Systems). The test is described as follows: SPR, TGFβ on chip.
Source text: as §1

Test [7] concerns the target T1, TGFβ1 (R&D Systems). Put plainly: cell-based or functional assay. This is another data set of the same source.
The next test has as its target human TGFβ1 (PeproTech) (human, UniProt P01137 279-390). The test is described as follows: HDX-MS epitope mapping, TGFβ1 with and without mAb.
For test [8], the target named is T2, TGFβ3 (R&D Systems). Put plainly: cell-based or functional assay.
Test [9] addresses T1, TGFβ1 (R&D Systems). Put plainly: cell-based or functional assay. The source holds these as a separate data set.
In test [10] the target is T3, TGFβ2 (R&D Systems). The test is described as follows: cell-based or functional assay.
Test [11] has as its target T2, TGFβ3 (R&D Systems). Put plainly: cell-based or functional assay. The source holds these as a separate data set.
Test [12] concerns the target T1, TGFβ1 (R&D Systems). Put plainly: SPR.
Test [13] addresses T2, TGFβ3 (R&D Systems). The test is described as follows: SPR.
Test [14] concerns the target T1, TGFβ1 (R&D Systems). Put plainly: cell-based or functional assay. The source holds these as a separate data set.
Another test addresses canine TGFβ1 (canine, UniProt P54831 279-390, limits assumed). The test is described as follows: SPR, TGFβ on chip.
Source text: as §1

The next test deals with T4, canine TGFβ2 (canine, UniProt A0A8I3PZZ6 331-442).
T4 sequence: T3 sequence (P61812 303-414, species assumed, looked up)
The test is described as follows: SPR, TGFβ on chip.
Source text: as §1

The next test concerns the target T5, canine TGFβ3 (canine, UniProt A0A8I3S1P1 346-457).
T5 sequence: T2 sequence
Put plainly: SPR, TGFβ on chip.
Source text: as §1

Test [15] deals with T1, TGFβ1 (R&D Systems). Put plainly: cell-based or functional assay. The source holds these as a separate data set.
The target of test [16] is T1, TGFβ1 (R&D Systems). The test is described as follows: SPR full titration. The source holds these as a separate data set.
The target of test [17] is T3, TGFβ2 (R&D Systems). Put plainly: SPR full titration.
For test [18], the target named is T2, TGFβ3 (R&D Systems). Put plainly: SPR full titration. The source holds these as a separate data set.
Test [19] deals with T1, TGFβ1 (R&D Systems). The test is described as follows: cell-based or functional assay. This is another data set of the same source.
The target of test [20] is T3, TGFβ2 (R&D Systems). Put plainly: cell-based or functional assay. The source holds these as a separate data set.
The target in test [21] is T2, TGFβ3 (R&D Systems). The test is described as follows: cell-based or functional assay. This is another data set of the same source.

Positions count from the first letter of the chain named. Read-outs that look alike come from different tables or passages of the source.

T1 sequence (P01137 279-390): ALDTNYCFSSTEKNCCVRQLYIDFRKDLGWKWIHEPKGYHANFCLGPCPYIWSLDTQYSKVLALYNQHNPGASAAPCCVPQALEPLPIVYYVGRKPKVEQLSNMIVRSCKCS
Chain of canine TGFβ1 (P54831 279-390 limits assumed): as the sequence (P01137 279-390) above
Chain of human TGFβ1 (PeproTech) (P01137 279-390 limits assumed): as the sequence (P01137 279-390) above
Description for human TGFβ1 (PeproTech): Hydrogen Deuterium Exchange (HDX) experiments were used to determine the epitopes on TGFβ1 to which each antibody series binds. This method establishes the peptide level epitope on TGFβ1 targeted by each mAb by HDX mass spectrometry. For each mAb analysis, TGFβ1 is incubated in deuterium oxide in the presence and absence of mAb, is digested, and fragments are then analyzed and compared for hydrogen/deuterium exchange via mass spectrometry.
More specifically, the method was carried out as follows: One milligram of TGFβ1 was reconstituted in 500 μL control buffer (50 mM phosphate, 100 mM sodium chloride at pH 7.4). […] The mass spectra were recorded in MS only mode.
For pepsin digestion, 10 μg of human TGFβ1 in 80 μL control buffer (50 mM phosphate, 100 mM sodium chloride at pH 7.4) was denatured by adding 160 μL of 8 M urea, 0.85 M TCEP buffer (final pH is 4.0) and incubating the mixture for 3 min at 6° C. Then, the mixture was subjected to pepsin digestion using an-house packed pepsin column (2.1×30 mm) at 11° C. and the resultant peptides was analyzed using a UPLC-MS system comprised of a Waters Acquity UPLC coupled to a Q Exactive™ Hybrid Quadrupole-Orbitrap Mass Spectrometer (Thermo). […]

B1: Can-SL501_VH3/Can-SL501-VL1 (antibody, V domains shown)
VH: EVQLVESGGDLVKPGGSLRLSCVASGFTFSSYGMHWVRQAPGKGLQWVAVISYDGSIKYYADAVKGRFTISRDNAKNTLYLQMNSLRAEDTAVYYCARTGEYSGYDTDPQYSWGQGTTVTVSS
VL: EIVMTQSPASLSLSQEEKVTITCRASQGIGDDLGWYQQKPGQAPKLLIYGTSTLQSGVPSRFSGSGSGTDFSFTISSLEPEDVAVYYCLQDSNYPLTFGAGTK
notes: caninized IgG; constant regions not restated; also called ZTS-501
In turn, B1 had a Kd with TGFβ1 (R&D Systems) [1] of 0.0218 nM. For the same molecule, the binding result with TGFβ3 (R&D Systems) [2] is “no binding”. Moreover, the “CMVIC pSmad-3, IC50” value in the test with TGFβ1 (R&D Systems) [3] worked out at 4.91 nM.

B2: 04H09 (mouse) (antibody, V domains shown)
VH: QVQLQQSGAELVKPGASVKISCKASGYAFSSSWMNWVKQRPGKGLEWIGQIYPGDGDTNYNGKFKGKATLTADKSSSTAYMQLSSLTSEDSAVYFCARHYDGSTDYWGQGTTLTVSS
VL: DIQMTQSPASLSVSVGETVTITCRASENIYSNLAWYQQKQGKSPQLLVYAATNLADGVPSRFSGSGSGTQYSLKINSLQSEDFGSYYCQHFWGTPYTFGGGTKLEIK
notes: mouse IgG, kappa, purified from hybridoma; also called mouse 04H09 monoclonal antibody; 04H09 (murine)
For the molecule B2, the Kd in the test with TGFβ1 (R&D Systems) [4] turned out to be 0.0443 nM; in the test with TGFβ2 (R&D Systems) [5], 7.13 nM; with TGFβ3 (R&D Systems) [6], 1.26 nM. Also, the “CMVIC pSmad-3, IC50” value in the test with TGFβ1 (R&D Systems) [7] was 4.66 nM. Also, the binding result with human TGFβ1 (PeproTech) is reported as “binds”.

B3: chi04H09 (mouse-dog) (antibody, V domains shown)
VH: B2 VH
VL: DIQMTQSPASLSVSVGETVTITCRASENIYSNLAWYQQKQGKSPQLLVYAATNLADGVPSRFSGSGSGTQYSLKINSLQSEDFGSYYCQHFWGTPYTFGGGTKLEIKR
notes: also called mouse:canine 04H09 chimera
For B3, the Kd stood at 4.01 nM in the test with TGFβ1 (R&D Systems) [4], 27.7 nM with TGFβ2 (R&D Systems) [5] and 4.64 nM in the test with TGFβ3 (R&D Systems) [6]. The “CMVIC pSmad-3, IC50” value amounted to 3.5 nM in the test with TGFβ1 (R&D Systems) [7] and 66.5 nM with TGFβ3 (R&D Systems) [8].

B4: felHclb 1-1WMN (antibody, V domains shown)
VH: QVLLVQSGAEVRTPGASVKIFCKASGYIFITYWMNWVRQSPAQGLEWMGSIFPASGSTSYAQKFQGRLTLTADTSTNTAYMELSSLRSADTAMYYCARGDGNYALDAMDYWGQGTSVTVSS
VL: EIQMTQSPSSLSASPGDRVTITCRASESVDSYGNSFMHWYQQKPGKVPKLLIYLASNLESGVPSRFSGSGSGTDFTLTISSLEPEDAATYYCQQNNEDPLTFGAGT
Regarding B4, the results for the “CMVIC pSmad-3, IC50” value with TGFβ1 (R&D Systems) [9], with TGFβ2 (R&D Systems) [10] and with TGFβ3 (R&D Systems) [11] were 69.7 nM, 121 nM and 10.1 nM, respectively.

B5: felHclb 1-1YMN (antibody, V domains shown)
VH: B4 VH with W33Y
VL: B4 VL
notes: also called felHclbH1-1YMN/felHclbK1-1; felHcLb-H1-1MN
In the test with TGFβ1 (R&D Systems) [12], B5 registered an equilibrium dissociation constant (Kd) of 263000 nM.

B6: felHclb 1-1xWMN (antibody, V domains shown)
VH: B4 VH with S50Q, S59N, A61N, Q62E, K63M, Q65E
VL: B4 VL
Take B6: the entries for the “CMVIC pSmad-3, IC50” value with TGFβ1 (R&D Systems) [9], with TGFβ2 (R&D Systems) [10] and in the test with TGFβ3 (R&D Systems) [11] were 0.35 nM, 1.99 nM and 0.53 nM, respectively.

B7: chi SL501 (antibody)
heavy: EVQLVESGGGVVQPGRSLRLSCAASGFTFSSYGMHWVRQAPGKELEWVAVISYDGSIKYYADSVKGRFTISRDNSKNTLYLQMNSLRAEDTAVYYCARTGEYSGYDTDPQYSWGQGTTVTVSSASTTAPSVFPLAPSCGSTSGSTVALACLVSGYFPEPVTVSWNSGSLTSGVHTFPSVLQSSGLYSLSSMVTVPSSRWPSETFTCNVAHPASKTKVDKPVPKRENGRVPRPPDCPKCPAPEAAGAPSVFIFPPKPKDTLLIARTPEVTCVVVDLDPEDPEVQISWFVDGKQMQTAKTQPREEQFNGTYRVVSVLPIGHQDWLKGKQFTCKVNNKALPSPIERTISKARGQAHQPSVYVLPPSREELSKNTVSLTCLIKDFFPPDIDVEWQSNGQQEPESKYRTTPPQLDEDGSYFLYSKLSVDKSRWQRGDTFICAVMHEALHNHYTQESLSHSPGK
light: EIVLTQSPSSLSASVGDRVTITCRASQGIGDDLGWYQQKPGKAPILLIYGTSTLQSGVPSRFSGSGSGTDFTLTINSLQPEDFATYYCLQDSNYPLTFGGGTKRNDAQPAVYLFQPSPDQLHTGSASVVCLLNSFYPKDINVKWKVDGVIQDTGIQESVTEQDKDSTYSLSSTLTMSSTEYLSHELYSCEITHKSLPSTLIKSFQRSEC
notes: also called Chimera-SL501-VH/Chimera-SL501-VL
The molecule B7 gave a dissociation constant Kd in the test with TGFβ1 (R&D Systems) [1] of 0.472 nM. Besides, the binding result with TGFβ3 (R&D Systems) [2] was “no binding”.

B8: fel-TGFβ1_hetero-chimera-2 (antibody)
heavy: EVQLVESGGGVVQPGRSLRLSCAASGFTFSSYGMHWVRQAPGKELEWVAVISYDGSIKYYADSVKGRFTISRDNSKNTLYLQMNSLRAEDTAVYYCARTGEYSGYDTDPQYSWGQGTTVTVSSASTTAPSVFPLAPSCGTTSGATVALACLVLGYFPEPVTVSWNSGALTSGVHTFPAVLQASGLYSLSSMVTVPSSRWLSDTFTCNVAHPPSNTKVDKTVRKTDHPPGPKPCDCPKCPPPEAAGAPSIFIFPPKPKDTLSISRTPEVTCLVVDLGPDDSDVQITWFVDNTQVYTAKTSPREEQFNSTYRVVSVLPILHQDWLKGKEFKCKVNSKSLPSPIERTISKAKGQPHEPQVYVLPPAQEELSRNKVSVTCLIKSFHPPDIAVEWEITGQPEPENNYRTTPPQLDSDGTYFVYSKLSVDRSHWQRGNTYTCSVSHEALHSHHTQKSLTQSPGK
light: EIQMTQSPSSLSASPGDRVTITCRASQGIGDDLGWYQQKPGKVPKLLIYGTSTLQSGVPSRFSGSGSGTDFTLTISSLEPEDAATYYCLQDSNYPLTFGGGTKRSDAQPSVFLFQPSLDELHTGSASIVCILNDFYPKEVNVKWKVDGVVQNKGIQESTTEQNSKDSTYSLSSTLTMSSTEYQSHEKFSCEVTHKSLASTLVKSFQRSECQRE
Consider B8, for which the binding result in the test with TGFβ3 (R&D Systems) [13] is “no binding”. Further, the “CMVIC pSmad-3, IC50” value with TGFβ1 (R&D Systems) [14] was 11.9 nM.

B9: Can04H09 VH1/VL4 (antibody, V domains shown)
VH: EVQLVQSGAEVKKPGASVKVSCKTSGYTFISSWMNWVRQAPGAGLDWMGQIYPGDGDTNYNGKFKGRVTLTADTSTSTAYMELSSLRAGDIAVYYCARHYDGSTDYWGQGTLVTVSS
VL: EIVMTQSPASLSLSQGEKVTITCRASENIYSNLAWYQQRPGQAPKLLIYAATNLADGVPSRFSGSGSGTDFSLTISSLEPEDVAVYYCQHFWGTPYTFGQGTK
B9: the figures for the equilibrium dissociation constant (Kd) with canine TGFβ1, with canine TGFβ2 and with canine TGFβ3 were 2.18 nM, 29.7 nM and 4.78 nM, respectively. The “CMVIC pSmad-3, IC50” value with TGFβ1 (R&D Systems) [7] came to 0.88 nM; with TGFβ3 (R&D Systems) [8] it was 136 nM. Moreover, in the test with TGFβ1 (R&D Systems) [15], the “IC50 (read off the curve), inhibition of TGFβ1-induced SMAD3 signalling [panel TGFβ1]” value was around 0.2 µg/mL.

B10: mHcLb (antibody, V domains shown)
VH: QVQLEESGPELVRPGASVKLSCKASGYIFITYWMNWVKQRPGQGLEWIGQIFPASGSTNYNEMFEGKATLTVDTSSSTAYMQLSSLTSEDSAVYYCARGDGNYALDAMDYWGQGT
VL: DIVLTQTPASLAVSLGQRATISCRASESVDSYGNSFMHWYQQKSGQPPKLLIYLASNLESGVPARFSGSGSRTDFTLTIDPVEADDAATYYCQQNNEDPLTFGAGTK
notes: murine antibody; also called 1D11; mHcLb (murine)
B10: the Kd in the test with TGFβ1 (R&D Systems) [16] stood at 5.05 nM; in the test with TGFβ2 (R&D Systems) [17], 0.586 nM; in the test with TGFβ3 (R&D Systems) [18] it was 0.223 nM. For the same molecule, the “pSmad-3, IC50” value was determined as 1.52 nM with TGFβ1 (R&D Systems) [19], 11 nM with TGFβ2 (R&D Systems) [20] and 1.11 nM with TGFβ3 (R&D Systems) [21].

The term Kd denotes the concentration at which binding is half-saturated.
